Molecular target: eHSP90α-His6 (secreted from HEK293) (human) (UniProt P07900)
Assay: native gel or EMSA

stoichiometry N: 2
Substance: eHSP90α-His6 (secreted from HEK293) (from UniProt P07900 1-732) (natural protein)

Reference: article PMC8276117
